# From the nanobody polyreactivity screen of Harvey et al. (2022)
# Experiment: yeast display, Sf9 membrane polyspecificity reagent, FACS + sequencing; frameworks hold sequencing errors
# In short: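 Nanobodies from a synthetic yeast display library (Saccharomyces cerevisiae BJ5465), induced 36–48 hours with galactose, were stained 1 hour at 4 °C with 10% biotinylated, detergent-solubilized Sf9 membrane reagent, enriched on streptavidin microbeads, then FACS-sorted. Anti-HA (expression) and streptavidin (reagent binding) fluorescence set low and high (top ~1%) gates. Polyreactivity labels come from the gate of origin. Genes were colony-PCR amplified, MiSeq 2 × 250 sequenced and filtered by CDR length.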
row,Sequence,polyreactivity (PSR sort gate)
1,QVQLVDSGGGLVQAGGTLRLSCASSGSTFYYYAMGWYRQAPGKERELVAGITSGGSTNYADSVKGRFTISRDNAKNTVKLLMNSLKPEDTADYYCNARYRKYRYRYDYWGQGTQVSVSS,low polyreactivity
2,QVQLVDSGGGLVQAGGTLRLSCSASGRTFPTYAMGWYRQAPGKEREVVAAISSSGCSTYYADSVKGRFTISRDNAKNSVYLQMHSLKPEDTAVYYCAALRDRNLNPGYDYWGQGTQLTVSS,low polyreactivity
3,QVQLVDSGGGLVQARGTLRLSCAASGSTFRVYAMGWYRQAPGKEMELVAAISSSGGITYYADSVKGRFPISRDNAKNSVYLQMNSLKPEDTEVYYCAKGTVIHVLYDYWGQGTQVTVSS,low polyreactivity
4,QVQLVDSGGGLYQAGGSLSLTCAASGSIFDFNAMGWYRQAPGKERELVAAISGSGARTYYADSVKGRFTIARDNAKHTVYLQLNSLKPEDTAVYLCARPYVYGYDSWGQGTQVTFSS,high polyreactivity
5,QVQLVDSGGRLFQAGGSLRLSCAAYGFSFSYYDMGSYRQAPGKERELVAAIFSNGRTYYADSVKGRFTISRDNAKNTVYLQMNSLKPVDTAVYYCAAAYVGYYYSRGFDYWGQGTQVTVSS,high polyreactivity
6,QVQLVDSGRGFVQAGGSLRLSCAASGSTYPGNEMGRSRQAPGKESELVAAIRWSGGSTYYADSVKGRFTISRDNAKNNVYLQMNSLKPEDTAVYYCAADYLIPDTYLFQAYVGFEYWGQGTLVTVSS,low polyreactivity
7,QVQLVDSGVGLVQAGGSLRLSCAASGNTFSSYTMGWYIQAPGKERELVAGISRTGTSTYYADSVKGRFTISRDNAKNSVYLQMNSLKPEDTAVYYCAARTGWWYYWGQGTQVSVSS,high polyreactivity
8,QVQLVDSGVGLVQAGGSLRLSCAASGSIFYQNAMGWYRQAHGSERELVAAITSDGSTYYADSVKGRFTISRDNAKNTVYLQMNSLKPEDTAVYYCPAEYYGHRYDYCGQGTQVTVSS,low polyreactivity
9,QVQLVDSRGGLVQAGGSLRLSCAASGIIFFDYTMGWYSQAPGKERELVASITRGGSTYADSVKGRFTISRDNAMNSVYLQMNSLKPEDTAVYYCAATIVDYDAYGYWGQGTQVTVSS,low polyreactivity
10,QVQLVDSRGGLVQAGGSLRLSCAASGLTFGPYAMGRYRQAPGKEREFVAAITWRGGRTNYADSVKGRFTMSRDNAKNTVYLQMNSLKPEDTAVYYCNAVISPHQWIRGGDSWGQGTQVTVSS,low polyreactivity
11,QVQLVDSRGGLVQAGGSLRLSCSASGSIFPANVMGWYRQAPGKERELVASINSGDDTNYADSVKGRFTISRDNAKNTVYLQMNSLKPEDTAVYYCATGDWYPYGDYIYDYWGQGTQVTVSS,low polyreactivity
12,QVQLVDSVGGLVQAGGSLRISCAASGSIFGFYAMGWYRQSPGKERELVAAISQRGGNTYYADSVKRRFTISRDNAKNTVYLQMNSLKPEDTAFYFCASDKHPYKRHWYYTYDYWGLGTQVTVSS,high polyreactivity
13,QVQLVDSWGGLVQAGGSLRLSCAASGSIFTLYDMGWYRQAPGKERELVAAIDWSGGSTRYADSVKGRFTISRDNAKNTVYLQMNSLKPEDTAVYYCAKDLGGRYGRYRYDYWGQGTQVTVSS,high polyreactivity
14,QVQLVDTGGGLVQAGGILRIRCAASGRIFHGNSMVCYRQAPGKERELVAAITWGGTRTYYSDSVKGRFTISRDNAKNTVYLQMNSLKPEDTAVYYCATDYGYTDRVTSGFDYWGQGNQVTVSS,low polyreactivity
15,QVQLVDTGGGLVQAGGSLRLSCAASGLTIYGNAMGWSRQAPGKERELVAAISSSGGTTYYADSVKGRFTISRDNSKNTVYLQMNSLKPEDTAVYYCAARPSGGYESTRTRDYWGQGTQVTLSS,low polyreactivity
16,QVQLVEAGGGLVQAGGILRLSSAASGSIFPLNAMGWYRQAPGKERELVAAISESGGRTYYADSVNGRFTISRDNAKNTVYLQMNSLNPEDTAVYYCATVRLARKSAPYDYWGQGTQVTVSS,high polyreactivity
17,QVQLVEAGGGLVQAGGSLRLSCAASGRTFLRYTMGWYRQAPGKEREWVASITRGGSTYYADSVKGRFTISRDNAKNTVYLQMNSLKPEDTAVYYCAAGKALLSRYYYWGQGTQVTVSS,high polyreactivity
18,QVQLVEAGGGLVQAGGSLRLSCAASGRTFPVNPMGGYRQAPGKERELVAAISKRAGSTYYADSVKGRFTISRDNAKNTVYLQMNSLKPEDTAVYYCAARWRVIYAEFDYWGQGTQVTVSS,high polyreactivity
19,QVQLVEAGGGLVQAGGSLRLSCAASGRTFTYYTMGWYRQAPGKERELVATITSGGITNYADSVKGRFTISRDNAKNTVYLQMNSLKTEDTAVYYCDKRWVNKYYYWGQGTQVTVSS,high polyreactivity
20,QVQLVEAGGGLVQAGGSLRLSCAASGRTLYPYAMGWYRQAPGKERELVAAISSRGGSTYYADSVKGRFTISRDNAKNTVYLQMNSLKPEDTAVYYCAKSYRKILSITGLVPWTDYFWGQGTQVTVSS,low polyreactivity

row,Sequence,polyreactivity (PSR sort gate)
1,QVQLVEAGGGLVQAGGSLRLSCAASGYIFFFYAMGWYRQAPGKERELVASITYRGGSTYYADSVKGRFTISRDNAKNTVYLQMNSLIPEDTAVYYCNVDGGGPLGPQGFPFDYWGQGTQVTVSS,low polyreactivity
2,QVQLVEAGGGLVQAGGSLRLSCGASGLTLTYYAMGGYRQAPGKERELVASISRSGGRTYYADSVKGRFTISRDNAKNPVYLQMNSLKPEDTAVYYCNAAWYRGRYDYWGQGTQVTVSS,high polyreactivity
3,QVQLVEAGGGLVQAGGSLRLSGAASGFTLYANAMGWYRQAPGKERELVADISVSGSSTAYADSVKGRFTISRDNAKNTVYLQMNSLKPEDTAVYYCNADQGTRDSDYWGQGTQVTVSS,low polyreactivity
4,QVQLVEEGGGLVQAGGSLRLSCAASGRISYYYTMGWYSQAPGKERELVAAISWSGGTTYYADSVKGRFTISRDNAKYTVYLQMYSLKPEDTAVYYCAARDYYTDFHGTRRYDYWGQGTLVTVSS,low polyreactivity
5,QVQLVELGGGLVQAGGSLRLSCAASGSIFSRNTMGWYRQAPGKERELVAGISSSGSRTYYADSVKGRFTISRDNAKNTVYLQMNSLKPEDTAVYYCNARYYWKQAADYNYWGQGTQVTVSS,low polyreactivity
6,QVQLVEPGGGLVQAGGSLRLSCAASGRIFRGYAMGWYRQAPGKVRELVAANSQSGSSTYYADSVKGRFTISRDNAKNTVYLKMNSLKPEDTAVYYCAVKYLKHFGYWGQGTQVTVSS,high polyreactivity
7,QVQLVESAAGLVKAGASLRLSCAPSGSTFYLNAMGGSRQEPGQESEFVAAIRGGGTSTRYADSVKGRFTISRDNAKNSVYLQMNSLKPEDSAVYYCAAGPGGHRYKVGYWGLGTQVTVSS,high polyreactivity
8,QVQLVESAAGLVQAGGSLRLSCAASGFIFHCNAMGWSRQAPGKERELVAAISDTADITHYADSVKGRFTISRDNAKNTVYLQMNSLKPEDTAVYFCNAGSGVQVVWYKPYREYEYWGQGTQVTVSS,low polyreactivity
9,QVQLVESAAGLVQAGGSLRLSCAASGLTFTTYDKGWYTQAPRKQRELFAAISRGGSRTYYADSVKGRFTISRDNAKNTVYLQMNSLKPEDTAVYYGNALTGSFTTYSFDFWGQGTQVTVSS,high polyreactivity
10,QVQLVESAAGLVQAGGSLRLSSAASGSIFGPYAMGWYRQAPGKERELVAVISSGDSTNYADSVKGRFTISRDNAKNTVYLQMNSLKPEDTAVYYCATRYLLYRGGHSLFYHFDYWGQGTQVTVSS,low polyreactivity
11,QVQLVESAARLVQAGGSLRLSCAPSGNIFKGYAMGCYRQAPGKHRELVAAITSGDSTNYADSVKGRFTISRDNAKNTVYLQMNSLKPEDTGVYYCNARYSWWRSRDGSSHRPDGYWGQGTQVTVSS,high polyreactivity
12,QVQLVESAGGFVQAGGSLRLSCAASGLTFYYYAMGWYRQAPGTERELVAAFSTRGTSTYYADSVKGRFTISRDNAKKTVYLQMNSQKPEDTAVYYCAADSYPWGTGGDYWGQGTQVTVSS,high polyreactivity
13,QVQLVESAGGLDQAGGSLRLSCAASGFTFVAYSMGLYRQAPGKERELVADISRGGSTFYADSVKGRFTISRDNAKISVYLQKNSLKPEDSAVYYCASTYIHSYGKFYYWGQGTQVTVSS,low polyreactivity
14,QVQLVESAGGLFQEGGSLRVSCAASGSTFSYYDMGGYRQAPGKERELVAAINSTGITTYADSVKGRFTISRDNAKNTVYLQMNSLKPEDTAVYYCAAYHNYWGPYVWEEDYWGQGTQVTVSS,low polyreactivity
15,QVQLVESAGGLVQAAGSLRLSCDASGFIFGTNAMGWYRQAPGKERELVAAINGRGGGTYYADSVKGRFTISRDNAKNTVYLQMNSLKPEDTAVYYCAASRFDYWGQGTQVTVSS,low polyreactivity
16,QVQLVESAGGLVQAGGSLLLSCAASGFTFYPYAMGWYRQAPGKERELVAAISNGDSTHYADSVKGRFTISRDNAKNTVYLQMTSQKPEDTAVYYCAAPRYPYRCFYSDYDYWGQGTQVTVSS,low polyreactivity
17,QVQLVESAGGLVQAGGSLPLSSAASGRIFVWYAMRWYRQAPGKDRELVAAISISGSSTYYADSVKGRFTISRDNAKNTVYLQMNSLNPEDTAVYYCAARFYSSAYWYDYWGQGTQVTVSS,high polyreactivity
18,QVQLVESAGGLVQAGGSLRLICAASGRIFYLNAMGWYRQAPGKESELVAAINTSCGSTYADSVKWRFTISRDNAKNTVYLQMNSLKPEDTAVYYCNAYLAEVLPLGKGRLYDYWGQGTQVTVSS,low polyreactivity
19,QVQLVESAGGLVQAGGSLRLICAASGSIFDLYAMGWYRQAPGTERELVAASTWSGGSTYYADSVKGRFTISRDNAKNTVYLQMNSLKPEDTAVYYCAAAYVGTQDLVIDYDYWGQGTQVTVSS,low polyreactivity
20,QVQLVESAGGLVQAGGSLRLSCAASARTFGAYAMGWYRQAPGNERELVATITVSGGSTYYADSVKGRFTISRENAKNTVYLPMNSLKPEDTAVYYCAAAYDWWQFYSWTIAYDYWGQGTQVTVSS,low polyreactivity
